Measurements reported in IntAct's records for PubMed 26365382.

B1: Zinc finger protein RFP (Homo sapiens), P14373 (parent)
chain: MASGSVAECLQQETTCPVCLQYFAEPMMLDCGHNICCACLARCWGTAETNVSCPQCRETFPQRHMRPNRHLANVTQLVKQLRTERPSGPGGEMGVCEKHREPLKLYCEEDQMPICVVCDRSREHRGHSVLPLEEAVEGFKEQIQNQLDHLKRVKDLKKRRRAQGEQARAELLSLTQMEREKIVWEFEQLYHSLKEHEYRLLARLEELDLAIYNSINGAITQFSCNISHLSSLIAQLEEKQQQPTRELLQDIGDTLSRAERIRIPEPWITPPDLQEKIHIFAQKCLFLTESLKQFTEKMQSDMEKIQELREAQLYSVDVTLDPDTAYPSLILSDNLRQVRYSYLQQDLPDNPERFNLFPCVLGSPCFIAGRHYWEVEVGDKAKWTIGVCEDSVCRKGGVTSAPQNGFWAVSLWYGKEYWALTSPMTALPLRTPLQRVGIFLDYDAGEVSFYNVTERCHTFTFSHATFCGPVRPYFSLSYSGGKSAAPLIICPMSGIDGFSGHVGNHGHSMETSP

Variants of: B1
Conditions: with magl2_human MAGEL2, Q9UJ55
Chain of magl2_human MAGEL2, Q9UJ55 (Q9UJ55 whole entry): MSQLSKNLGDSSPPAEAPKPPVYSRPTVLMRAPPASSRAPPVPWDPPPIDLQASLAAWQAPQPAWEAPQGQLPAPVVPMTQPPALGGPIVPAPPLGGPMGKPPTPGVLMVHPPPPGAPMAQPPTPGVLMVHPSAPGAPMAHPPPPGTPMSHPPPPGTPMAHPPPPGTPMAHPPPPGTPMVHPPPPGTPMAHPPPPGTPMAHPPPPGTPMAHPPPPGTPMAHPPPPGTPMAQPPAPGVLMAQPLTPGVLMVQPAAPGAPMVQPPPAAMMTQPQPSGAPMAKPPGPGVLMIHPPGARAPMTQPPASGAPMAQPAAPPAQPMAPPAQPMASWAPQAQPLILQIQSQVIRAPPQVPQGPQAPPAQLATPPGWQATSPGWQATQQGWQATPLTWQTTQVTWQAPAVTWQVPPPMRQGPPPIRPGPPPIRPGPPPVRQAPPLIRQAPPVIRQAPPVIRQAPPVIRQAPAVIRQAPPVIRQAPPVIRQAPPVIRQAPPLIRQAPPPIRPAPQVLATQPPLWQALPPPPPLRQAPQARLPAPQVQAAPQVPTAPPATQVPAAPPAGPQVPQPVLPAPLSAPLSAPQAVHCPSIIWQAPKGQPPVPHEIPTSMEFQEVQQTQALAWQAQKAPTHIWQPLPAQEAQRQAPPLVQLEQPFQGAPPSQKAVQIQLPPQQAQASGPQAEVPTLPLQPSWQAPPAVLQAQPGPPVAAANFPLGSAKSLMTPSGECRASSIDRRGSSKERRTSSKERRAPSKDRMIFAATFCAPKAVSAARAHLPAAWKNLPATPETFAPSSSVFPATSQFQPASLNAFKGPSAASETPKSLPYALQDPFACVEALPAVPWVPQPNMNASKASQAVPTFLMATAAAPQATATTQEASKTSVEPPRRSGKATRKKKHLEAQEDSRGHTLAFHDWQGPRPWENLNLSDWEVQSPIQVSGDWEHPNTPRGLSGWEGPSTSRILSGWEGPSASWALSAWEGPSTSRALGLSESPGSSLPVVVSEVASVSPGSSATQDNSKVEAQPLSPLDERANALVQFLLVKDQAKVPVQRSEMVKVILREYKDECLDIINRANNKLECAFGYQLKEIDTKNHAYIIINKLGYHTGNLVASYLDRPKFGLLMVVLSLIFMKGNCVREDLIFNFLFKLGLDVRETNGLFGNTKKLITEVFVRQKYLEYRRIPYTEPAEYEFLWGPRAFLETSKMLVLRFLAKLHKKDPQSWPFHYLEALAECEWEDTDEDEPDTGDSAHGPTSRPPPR

Variant | effect of a mutation on the interaction
K304R;K380R;K382R | with no effect
